Biological target: T1, Pfu-E10 DNA polymerase (evolved Pfu polB variant) (Pyrococcus furiosus, UniProt P61875 1-775, R407I)
T1 sequence: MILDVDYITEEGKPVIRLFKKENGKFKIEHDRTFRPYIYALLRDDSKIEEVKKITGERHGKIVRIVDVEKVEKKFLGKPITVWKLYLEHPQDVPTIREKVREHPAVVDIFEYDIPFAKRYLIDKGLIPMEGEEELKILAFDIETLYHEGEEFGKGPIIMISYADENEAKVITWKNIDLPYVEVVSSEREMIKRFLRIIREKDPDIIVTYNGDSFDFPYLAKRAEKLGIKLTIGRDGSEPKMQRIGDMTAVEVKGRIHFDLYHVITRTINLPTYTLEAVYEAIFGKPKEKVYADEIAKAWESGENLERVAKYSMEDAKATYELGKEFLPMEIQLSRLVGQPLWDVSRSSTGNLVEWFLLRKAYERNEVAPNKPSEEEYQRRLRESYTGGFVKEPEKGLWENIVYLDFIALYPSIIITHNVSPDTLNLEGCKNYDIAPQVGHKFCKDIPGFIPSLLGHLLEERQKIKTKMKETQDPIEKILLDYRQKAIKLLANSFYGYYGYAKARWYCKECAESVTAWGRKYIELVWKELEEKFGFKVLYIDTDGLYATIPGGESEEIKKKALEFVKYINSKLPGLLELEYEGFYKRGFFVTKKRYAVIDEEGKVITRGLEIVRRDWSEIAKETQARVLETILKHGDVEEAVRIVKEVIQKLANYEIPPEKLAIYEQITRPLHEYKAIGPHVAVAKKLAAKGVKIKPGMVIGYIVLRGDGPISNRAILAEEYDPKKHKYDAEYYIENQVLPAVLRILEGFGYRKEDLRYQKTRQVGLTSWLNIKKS
Experiment: X-ray crystallography (2.9 A); binary complex; 10 mM dCTP in crystallisation medium but no dNTP or metal ion seen at active site; Complex: 20 mM Tris, 50 mM NaCl, 5 mM MgCl2, 5% glycerol, 1 mM dCTP, 1:5 protein:DNA, 4 C overnight; crystals: 0.1 M Na cacodylate pH 6.5, 0.1 M Na citrate, 30% isopropanol, 10 mM dCTP
Conditions: protein: recombinant; 5' overhang 3 nt (template)

B1: primer:template duplex (crystal) (dsDNA)
DNA 1: ACGGGTAAGCA
DNA 2: TGCTTACC
modifications: 3'-terminal C of primer is 2',3'-dideoxycytidine (DOC)
B1: binds.

Source: article PMC3733885, “Structures of an Apo and a Binary Complex of an Evolved Archeal B Family DNA Polymerase Capable of Synthesising Highly Cy-Dye Labelled DNA”
